Assays:
[1] = biological target: T1, HIS-PI3K/p85-SH3 (Homo sapiens, UniProt O00459); assay: Surface plasmon resonance (Biacore 3000) of obscurin-PH binding to PI3K/p85-SH3; details: GST-obscurin-PH immobilized ligand, HIS-PI3K/p85-SH3 analyte 8-250 nM; 1:1 Langmuir model, at equilibrium; read-out: dissociation constant, KD
T1 construct: the Src Homology 3 (SH3) domain of the regulatory subunit of PI3K were produced; made in house; host or cells: bacteria (IPTG induction)
T1 sequence (O00459 4-80 limits assumed): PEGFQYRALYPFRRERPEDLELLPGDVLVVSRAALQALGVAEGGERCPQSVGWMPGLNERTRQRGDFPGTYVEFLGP
T1 sequence (Q5VST9 5895-6004 partner limits assumed): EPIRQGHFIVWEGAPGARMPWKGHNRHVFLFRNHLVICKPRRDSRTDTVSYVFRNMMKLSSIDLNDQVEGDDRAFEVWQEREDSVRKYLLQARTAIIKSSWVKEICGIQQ
Description: The Pleckstrin Homology (PH) domain of obscurin and the Src Homology 3 (SH3) domain of the regulatory subunit of PI3K were produced as glutathione-S-transferase (GST, PGEX vector; GE Healthcare Life Sciences) and His (pET-30a(+) vector; EMD Millipore, Billerica, Mass.) tagged proteins, respectively, according to the manufacturers' instructions and established methods (19). Human cDNA from normal breast tissue was purchased from a commercial source (Origene, Atlanta, Ga.), and the following sets of primers were used for amplification of the obscurin-PH and the PI3K/p85-SH3 domains: Sense-Obsc-PH: 5′ CCCATCCGCCAGGGC 3′ (SEQ ID NO 1) and Antisense-Obsc-PH: 5′ AGGCAGGGCCAGACG 3′ (NM_001098623.2) (SEQ ID NO 2), and Sense-PI3K/p85-SH3: 5′ CCTGAGGGCTTCCAG 3′ (SEQ ID NO 3) and Antisense-PI3K/p85-SH3: 5′ TCAGGGCCCCAGGAA 3′ (NM_005027) (SEQ ID NO 4). […]
Surface plasmon resonance was performed using a BiaCore 3000 instrument as described (6, 19, 21). […] For each analyte concentration, association was measured for 180 sec and dissociation was measured over another 180 sec. Data were evaluated with the 1:1 Langmuir model and the Heterogeneous Ligand model (BIAevaluation Software 3.1, Biacore). The association (ka, M^−1 s^−1) and dissociation (kd, s^−1) rate constants as well as the association (KA, M^−1) and dissociation (KD, M) equilibrium constants were determined.

[2] = biological target: T1, HIS-PI3K/p85-SH3; assay: GST-pull down assay; assay type: binding; details: 3 mg/ml HIS-PI3K/p85-SH3; control GST-protein did not retain
Description: The Pleckstrin Homology (PH) domain of obscurin and the Src Homology 3 (SH3) domain of the regulatory subunit of PI3K were produced as glutathione-S-transferase (GST, PGEX vector; GE Healthcare Life Sciences) and His (pET-30a(+) vector; EMD Millipore, Billerica, Mass.) tagged proteins, respectively, according to the manufacturers' instructions and established methods (19). Human cDNA from normal breast tissue was purchased from a commercial source (Origene, Atlanta, Ga.), and the following sets of primers were used for amplification of the obscurin-PH and the PI3K/p85-SH3 domains: Sense-Obsc-PH: 5′ CCCATCCGCCAGGGC 3′ (SEQ ID NO 1) and Antisense-Obsc-PH: 5′ AGGCAGGGCCAGACG 3′ (NM_001098623.2) (SEQ ID NO 2), and Sense-PI3K/p85-SH3: 5′ CCTGAGGGCTTCCAG 3′ (SEQ ID NO 3) and Antisense-PI3K/p85-SH3: 5′ TCAGGGCCCCAGGAA 3′ (NM_005027) (SEQ ID NO 4). GST- and His-tagged recombinant proteins were expressed by induction with 0.5 mM isopropyl […] (IPTG) for 3 h and purified by affinity chromatography on glutathione-Sepharose (Thermo Fisher Scientific) or Talon cobalt (Thermo Fisher Scientific) columns, respectively, following the manufacturers' instructions.
GST-pull down assays were performed (19, 20). […]

B1: GST-obscurin-PH: recombinant Pleckstrin Homology (PH) domain of obscurin fused to GST, bacterially expressed (~37 kDa) (protein)
chain: T1 sequence (Q5VST9 5895-6004 partner limits assumed)
modifications: left off: a dimerising Fc or GST
[1]
  Kd: ~50 nM
[2]
  retention of HIS-PI3K/p85-SH3 in GST-pull down: able to efficiently and specifically retain HIS-PI3K/p85-SH3

Source: US20170363632A1, “Biomarker Kit for Metastatic Breast Cancer Prognosis and Uses Thereof” (University of Maryland, Baltimore, priority 2016, published 2017)
